In IntAct's records for PubMed 32433612:

Biological target: tasl_human TASL (UniProt Q9HAI6)

Substance | effect of a mutation on the interaction
Solute carrier family 15 member 4 (Homo sapiens), Q8N697 E44A | with no effect
Solute carrier family 15 member 4 (Homo sapiens), Q8N697 E47A | with no effect
Solute carrier family 15 member 4 (Homo sapiens), Q8N697 E465A | disrupting interaction strength
Solute carrier family 15 member 4 (Homo sapiens), Q8N697 E465K | disrupting interaction strength
Solute carrier family 15 member 4 (Homo sapiens), Q8N697 L14A;L15A | with no effect
